The text below walks through data of the nanobody polyreactivity screen of Harvey et al. (2022).

This data set in a line: yeast display, Sf9 membrane polyspecificity reagent, FACS + sequencing; frameworks hold sequencing errors. A digest of the protocol: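 A synthetic nanobody library was expressed on Saccharomyces cerevisiae BJ5465 by galactose induction for 36–48 hours. The library was stained for 1 hour at 4 °C with 10% biotinylated, detergent-solubilized Sf9 membrane reagent and enriched with streptavidin microbeads before FACS. Low and high (top ~1%) gates were set on anti-HA fluorescence for expression and streptavidin fluorescence for reagent binding, and each polyreactivity label reflects the gate of origin.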
For “QVQHVESGGGLVQAGGSLRLSCAASGSIFYVNAMGWYRQAPGKERELVAAITRDGSTNYADSVKGRFTISRDNAKNTVYLQMNSLKPEDTAVYYCAADFVRYIDREDYWGQGTQVTVSS”, the “polyreactivity (PSR sort gate)” value is on record as “low polyreactivity”.
For the sequence “QVQHVESGGGLVQAGGSLRLSCAASGRIFHYYAMGWYRQAPGKERELVAAITFRGGNTYADSVKGRFTISRDNAKNTVYLQMNSLKPEDTAFYYCADSRLSGYYSRYGYWGQGTQVTVSS”, the “polyreactivity (PSR sort gate)” value is “high polyreactivity”.
With “QVQLVESGGGLVQAGGSLRLSCAASGSTFSPYAMGWYIQAPGKERELVAAIRVRVGGNTYYADSVKGRFTISRDNAKNTVYLQMNSLKPEDTAVYYCAAYSRTLYPDRYYWGQGTQVTVSS”, the “polyreactivity (PSR sort gate)” value is on record as “high polyreactivity”.
As for “QVQLVESGGGLVQAGGSLSLSCAASGYTLYANAMGWYRQAPGKERELVAAIRSGGSTNYADSVKGRFTISRDNAKNTVYLQMNSMKPEDTAVYYCAKDPYQDFLYLRYYGYYYWGQGTQVTVSS”, the “polyreactivity (PSR sort gate)” value is listed as “low polyreactivity”.
As to “QVQLVESGGGLVQAGGSLRLSCAASGSIFYRNAMGWYRQAPGKERELVAGITWRGGRTYYADSVKGRFTISRDNAKNTVYLQMNSLKPEDTAVYYCAATYYWYGHPSRRYDYWGQGTQVTVSS”, the “polyreactivity (PSR sort gate)” value was “high polyreactivity”.
Take “QVQLVESGGGLVQAGGSLRLSCAASGRTFKHYAMGWYRPAPGKERELVATITNTGGRTNYADSVKGRFTISRDNAKNTVYLQMYSLKPEDTAVYYCNRVNDYYRPGGRPFGIFDYWGQGTQVTVSS”: the “polyreactivity (PSR sort gate)” value is given as “low polyreactivity”.
Take “QVQLVESGGGLVQAGGSLRLSCAASGFIFSYYAMGWYRQAPGKERELVAAITWDGGSTYYADSVKGRFTISRDNAKNTVYLQMNSLKPEDTAVYYCNAYYYYRRPLEGGYWGQGTQVTVSS”: the “polyreactivity (PSR sort gate)” value is on record as “low polyreactivity”.
As to “QVQLVESGGGLVQAGGSLRLSCAASGITFYDYAMGWYRQAPWKERELVAAISFSGSRTYYADSVKGRFTISRDNAKNTVYLQMNSLKPEDTAVYYCAASQARNYKIYDYWGQGTQVTVSS”, the “polyreactivity (PSR sort gate)” value is “high polyreactivity”.
“QVQLVESGGGLVQAAGSLRLSFAASGGIFSYYVMGWYRQAPGKEREFVASITQRGRTYYADSVKGRFTISRDNAKNTVYLQMNSLKPEDTAVYYCAAGIYAFRRHREEYDYWGQGTQVTVSS”: the “polyreactivity (PSR sort gate)” value was “high polyreactivity”.
For “QVQLVESGGGLVQAGGSLRLSCAASGIIFPSYVMGWYRQAPGKERELVAAISSRGTSTYYADSVKGRFTISRDHAKNTVYLQMNSLKPEDTAVYYCAAKSFGTTTRSEYDYWGQGTQVTVSS”, the “polyreactivity (PSR sort gate)” value is “high polyreactivity”.
Consider “QVQLQESRGGLVQAVRSLRLSCAASGTILYSLGMGWYRQAPGKRREFVASITRGTTTNYAESVKGRFTISRDNAKKTVYPQMNSLKAEDTGVSFCAGPPFGVSSYDYWGQGNQVTVSS”, for which the “polyreactivity (PSR sort gate)” value is listed as “low polyreactivity”.
Regarding “QVQLVESGGGLVQAGGSLRLSCAASGRTIVYNAMGWYRQAPGKERELVAAITSRGGSTHYADSVKGRFTISRDNAKNTVYLQMNSLKPEDTAVYYCAADFLSPAYRPSWYRFDYWGQGTQVTVSS”, the “polyreactivity (PSR sort gate)” value is “low polyreactivity”.
“QVQVVESGGGLVQAGGSLRLRCAASGSIIKYYAMGWYREAPGKERELVADISWRGGRTYADSVKGRFTISRDNAKNTVYLQMNCLIPEDTAVYYCAKPSKARGGYDYWGQGTQVTVSS”: the “polyreactivity (PSR sort gate)” value is “high polyreactivity”.
Take “QVQLVESGGGLVQAGGSLRLSCAASGSTFTSYAMGWYRQAPGKERELVAAIRYRGDGTYYADSVKGRFTISRDNAKNTVYLQMNSLKPEDTAVYYCAADSRVYRGGYIYRYGYWGQGTQVTVSS”: the “polyreactivity (PSR sort gate)” value is given as “low polyreactivity”.
As to “QVQLVESGGGLVQAGGCLRLSCAASGSTFYGYAMGWYRQAPGKERELVAAISRIGSSTYYADSVKGRFTISRDNAKITVYLQMNSLKPEDTAVYYCAADTWKVFGVDYWGQGTQVSVSS”, the “polyreactivity (PSR sort gate)” value is given as “high polyreactivity”.
The value for “QDQLVESGGGLVQAGGSLRLSCAASGLTYRLNAMGWYRQAPGKEREFVAAISAIGDRTYYADSVKGRFTISRDNAKNTVYLQMNSLKPEDTSVYYCNVTPRSAQVRIGNYWGQGTQVTVSS” was “high polyreactivity”; that for “QVQLVESGGGLVQAGGSLRLSCAASGRIFTRYALGWYRHADGKVRELVATISRGGNTNYADSVKGRFTISRDNANNTVYLQMTSLKPEDTAVYYCAKYPVSRVGGYGYWGQGTQVTVSS” was “low polyreactivity”; that for “QVQLVESGGGLVQAGGSLRLSCAASGFIFSYNAMGWYRQAPGKERELVASISRRSGITYYADSVKGRFTISRDNAKNTVYLQMNSLKPEDTAVYYCAVTQNSKSTKIRPDQGDYWGLGTQVTVSS” was “high polyreactivity”.
The value for “QVQLVESGGGLVQAGGSLRLSCAASGITFFYYAMGWYRQAPGKERELVAAINWSGRTYYADSVKGRFTISRDNAKNTVYLQMNSLKPEDTAVSYCAAVTYGPGVSGMDYWGQGTQVTVSS” was “low polyreactivity”; that for “QVQLVESGGGLVQPGGSLRLSCAASGFIFRNYAMGWYRQAPGQERELVAAITRSGDNTYYADSVKGRFTISRDNAKNTVYLQMNSLKPEDTAVYYCAARDVQYQQALGGDYWGQGTQVTVSS” was “low polyreactivity”; that for “QVQLVESGGGLVHAGGSLRLSCAASGSTFVRNAMGWYRQAPGKERELVAAITSRGGSTYYADSVKGRFTISRDNAKNTVYLQMNSLKPEDTAVYYCAARFGVKRGQYDYWGQGTQVTVSS” was “high polyreactivity”.
Take “QVQLVESGGCLVQAGGSLRLTCAASGRTFYWNTMGWYRQAPGKERELVAAISSSGDSTYYADSVKGRFTISRDNAKNTVYLQMNCLKPEDTAVYYCAAGRRGTSTTWGQGSQVTVSS”: the “polyreactivity (PSR sort gate)” value was “high polyreactivity”.
On to “QVQLVESGGGLVQAGGSLRLSCAASGSTFYKNAMGWYRPAPGKERELVAAISGSGGRTYYADSVKGRFTISRDNAKNTVYLQMNSLKPEDTAVYYCNAARAYYSLYYGLDYWGQGTQVTVSS”, for which the “polyreactivity (PSR sort gate)” value was “high polyreactivity”.
Regarding “QVQPVESGGGLVQAGGSLRLSCAASGIIFPYYAMGWYRQEPGKERELVAAISTGGSTYYADSVKGRFTISRDNAKNTVYLQMNSLKPEDTAVYCCAAATSYGKSEYDYWGQGTQVTVSS”, the “polyreactivity (PSR sort gate)” value is reported as “high polyreactivity”.
As for “QVQLEESGGGLVQAGGRLRLSCAASGRTFGRYAMGWDREPPGKERELVAAIRSGGSTYYADSVKGRLTISRDNAKNTVYFQMNSVKQADTAVYYCAADIARHLTGFAYYGLDYWGQGTQVTVSS”, the “polyreactivity (PSR sort gate)” value was “low polyreactivity”.
With “QVQLVESGGGLVQAGGSLRLSCAASGSIFGRNAMGWYRQAPGKERELVAAITWRTGSTFYADSVKGRFTISRDNAKNTVYLQMNCLKPEDTAVYYCNAAGPAYSYYHWLWGDYNSWRQGTQVTVSS”, the “polyreactivity (PSR sort gate)” value is listed as “low polyreactivity”.
For “QVQLVDSGGGLVQAGGSLRLSCAASGSIFYYNAMGWYRPAPGKERELVAAITSSGGSTYYADSVKGRFTISRDNAKNTVYLQMNSLKPEDTAVYYCYAGATALRYRPYSSAYDYWGQGTQVTVSS”, the “polyreactivity (PSR sort gate)” value is recorded as “low polyreactivity”.
In the case of “QVQLVESGAGLVQAGGSLRLTCAASGSTFLDMGLYRQAPAKEREFVASISLSGGSTYYADSVKGRFTISRDNAKNTVYLQMNSLKPEDTAVYYCNAEAWWYFWFDYWGQGTQVTVSS” it was “low polyreactivity”.
As to “QVQLVESGGGLVQAGGSLRLSCAASGRISVFNAMGWYRQAPGKERELVAAITSGGSTNYADSVKGRFTISRDNAKNTVYLQMNSLKPEDTAVYYCNADVYHSHEPHYDYWGQGTQVTVSS”, the “polyreactivity (PSR sort gate)” value is given as “low polyreactivity”.
Regarding “QVQLVESGGGLVQAGGSLRLSCAASGIIFPRYALGWYRQAPGKERELVAAITIGGRTNYADSVKGRFTISRDNAKNTVYLQMNSLKPEDPAVYYGAAQTYVPYYEYDYWGQGTQVTVSS”, the “polyreactivity (PSR sort gate)” value is recorded as “low polyreactivity”.
